Experimental data taken from the nanobody polyreactivity screen of Harvey et al. (2022).

Assay: yeast display, Sf9 membrane polyspecificity reagent, FACS + sequencing; frameworks hold sequencing errors
How it was run: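 Synthetic nanobody libraries on Saccharomyces cerevisiae BJ5465 were galactose-induced for 36–48 hours, stained 1 hour at 4 °C with 10% biotinylated, detergent-solubilized Sf9 membrane reagent and enriched on streptavidin microbeads. FACS then separated cells into low and high (top ~1%) gates by anti-HA (expression) and streptavidin (reagent binding) fluorescence. Genes were colony-PCR amplified, MiSeq 2 × 250 sequenced and CDR-length filtered. A clone's polyreactivity label is that of its gate of origin.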

Sequence	polyreactivity (PSR sort gate)
QVQLVESGGGLVQAGGSLRLSCAASGRIFDPNAMGWYRQAPGKERELVAAISSRSGSTFYADSVKGRFTISRDNAKNTVYLQMNSLKPEDTAVYYCAAVYRFYKHNYWGQGTQVTVSS	high polyreactivity
QVQLVESGGGLVQAGGSLRLSCAASGRIFDPYAMGWYRQAPGKERELVAAINIGGGTNYADSVKGRFTISRDNAKNTVYLQMNSLKPEDTAVYYCAAPVPAYQFYYRLKSFGRRYDHWGQGTQVTVSS	low polyreactivity
QVQLVESGGGLVQAGGSLRLSCAASGRIFDQNAMGWYRQAPGKERELVAAITWSGGSTNYADSVKVRFTISRDNSKNTVYLLMNSLKTEDTAVYYCNKVSYGYSTYGYWGQGTQVTVSS	low polyreactivity
QVQLVESGGGLVQAGGSLRLSCAASGRIFDRNAMGWYRQATGKERELVARIDPGDDTNYADSVKGRFTISRDNAKNTVYLLMNSLKPEDTAVYYCATDPDYVLYRTAYYEYDYWGHGTQVTVSS	low polyreactivity
QVQLVESGGGLVQAGGSLRLSCAASGRIFDRNTMGWYRQAPGKEREFVAAISGSGGRTYYADSVKGRFTISRDNAKNTVYLQMNSLKPEDTAVYYCAAYYSRQYVGYGYWGQGTQVTVSS	high polyreactivity
QVQLVESGGGLVQAGGSLRLSCAASGRIFDRYAMGWYREAPGKERELVAAISGSGGRTYYADSVKGRFTISRDNAKNTVYLQMNSLKPEDTAVYYCAVKFSLYGQGYPKGDYWGQGTQVTVSS	high polyreactivity
QVQLVESGGGLVQAGGSLRLSCAASGRIFDRYVMGWYRQAPGKERELVAAISQSGGGTYYADSVKGRFTISRDNAKNTVYLQMNSLNPEDTAVYYCAARGTGYHGYGYWGQGSQVTVSS	high polyreactivity
QVQLVESGGGLVQAGGSLRLSCAASGRIFDSNALGWYRQAPGKERELVAAISYDGGSTYYADSVKGRFTISRDNAKNTVYLQMNSLKPEDTAVYYCAADDGWYYYYGYDYWGQGTQVTVSS	low polyreactivity
QVQLVESGGGLVQAGGSLRLSCAASGRIFDSYAMGWYRQAPGKERELVAVISNNDGTTYYADSVKGRFTISRDNAKKTFYLQMNSLKPEDTAVYYCAAEEPLFGYLWYVVTYAGFYDYWGQGTQVTVSS	low polyreactivity
QVQLVESGGGLVQAGGSLRLSCAASGRIFDSYTMGWYRQAPGKERELVAAISRGGGSTYYADSVKGRFTISRDNAKNTVYLQMNSLKPEDTAVYYCAASSYLNSRFKFDYWGQGTQVTVSS	low polyreactivity
QVQLVESGGGLVQAGGSLRLSCAASGRIFDTYAMGWYSQAPGKERELVASISIDGSTYYADSVKGRFTISRDNAKNTVYLQMNSLKPEDTAVYYCNADGRYYTVRFEYWGQGTQVTVSS	low polyreactivity
QVQLVESGGGLVQAGGSLRLSCAASGRIFDVNAMGWYRQAPGKEREFVAAINSRGDSTYYADSVKGRFTISRDNAKNTVYLQMNSLKPEDTAVYYCNVRGYSYSYRFWRYDYWGQGTQVTVSS	high polyreactivity
QVQLVESGGGLVQAGGSLRLSCAASGRIFDVYAMGWYRQAHGKERELVARISDGGGSTYYADSVKGRFTISRDNAKNTVYLQMNSLKPEDTAVYYCASGGDLRLDRRFAFVSRGDYWGQGTQVTVSS	low polyreactivity
QVQLVESGGGLVQAGGSLRLSCAASGRIFDVYAMGWYRQAPGKERELVASISWSDGSTYYADSVKGRFTLSRDNAKNTVYLQMNSLKPEDTAVYYCNALTELGGRWDDYWGQGTQVTVSS	low polyreactivity
QVQLVESGGGLVQAGGSLRLSCAASGRIFDVYAMGWYRQAPVKERELVAAITWRGGTTYYADSVKGRFTISRDNAKNTVYLQMHTLKPEDTAVYYCNADLVYYSKHQKYSYDYWGQGTQVTVSS	low polyreactivity
QVQLVESGGGLVQAGGSLRLSCAASGRIFDVYEMGWYRQAPGKERELVAAMTWSGTSTYYADSVKGRFTISRDNAKNTVYLQMNSLKPEDTAVYYCNALSYGRYLNYRGGMDYWGQGTQVTVSS	high polyreactivity
QVQLVESGGGLVQAGGSLRLSCAASGRIFDYAMGWYRQAPGKERELVAAINSAGSTNYADSVKGRFTISRDNAKNTVYLQMNSLKPEDTAVYYCNTDYGSSYNYWGQGTQVTVSS	high polyreactivity
QVQLVESGGGLVQAGGSLRLSCAASGRIFDYNAMGWYRQAPGKERELVAAISVSGGSTYYADSVKGRFTISRDNAKNTVYLQMNSLKPEDTAVYYCNAGYILDSFRYDHWGHGTQVTVSS	low polyreactivity
QVQLVESGGGLVQAGGSLRLSCAASGRIFDYNTMGWYRQAPGKERELVAAITGGTGSTYYADSVKGRFTISRDNAKNTVYLHMNSLKPEDTAVYYCAAGFHKRVTPEILYDFWGQGTQVTVSS	low polyreactivity
QVQLVESGGGLVQAGGSLRLSCAASGRIFDYNTMGWYRQAPGKERELVAAITGGTGSTYYADSVKGRFTISRDNAKNTVYLQMNSLKPEDTAVYYCAAGFHKRVTPEILYDYWGQGTQVTVSS	low polyreactivity
QVQLVESGGGLVQAGGSLRLSCAASGRIFDYYAMGWYRQAPGKERELVAAINSGGSTYYADSVKGRFTISRDNAKNTVYLQMNSLKPEDTAVYYCNALRKSLRGGDYWGQGTQVTVSS	high polyreactivity

Sequence	polyreactivity (PSR sort gate)
QVQLVESGGGLVQAGGSLRLSCAASGRIFDYYAMGWYRQAPGKERELVAAITSGGTTTYYADSVKGRFTNSRDNAKNTVYLQLNSLKPEDTAVYFCAKYPYHIYHTDGDYWGQGTQVTVSS	low polyreactivity
QVQLVESGGGLVQAGGSLRLSCAASGRIFDYYAMGWYRQAPGKERELVAAITVRGGTTYYADSVKGRFTISRDNAKNTVDLQMNSLKPEDTAVYYCAASDRRRYYYWGQGTQVTVSS	high polyreactivity
QVQLVESGGGLVQAGGSLRLSCAASGRIFDYYDLGWYRQAPRKERELVAAITSSGTSTYYADSVKGRFTISRDNAKNTVYLQMNSLKPEDTAVYYCNARSIRPWGENGYWGQGTQVTVSS	high polyreactivity
QVQLVESGGGLVQAGGSLRLSCAASGRIFEDYAMGWYRQAPGKERELVAAISSGGSTYADSVKGRFTISRDNAKNTVYLQMNSLKPEDTAVYYCAAYYRRSTYYYWGQGTQVTVSS	high polyreactivity
QVQLVESGGGLVQAGGSLRLSCAASGRIFEGYAMGWYRQAPGKEELVAAITSDASTYYADSVKGRFTISRDNAKNTVYLQMNSLNPEDTAVYYCNAYTRGLEYDYWGQGTQVTVSS	high polyreactivity
QVQLVESGGGLVQAGGSLRLSCAASGRIFEHYAMGWYRQAPGKERELVAAITVSGGSTYYADSVKGRFTISRDNAKNTVYLQMNSLKPEDTAVYYCNADQRDYGSYVTKLDYWGQGTQVTVSS	low polyreactivity
QVQLVESGGGLVQAGGSLRLSCAASGRIFEIYALGWYRQAPGKERELVAAISWRGVSTYYADSVKGRFTISRDNAKNTVYLQMKSLKPEDTAVYYCNKDVDYFWYVEYDYWGQGTQVTVSS	low polyreactivity
QVQLVESGGGLVQAGGSLRLSCAASGRIFERYAMGWYRQAPGKERELVAAISVSGSGTYYADSVKGRFTISRDNAKNTVYLQMNSLKPEDTAVYYCAADASLLGLFQGYDYWGQGTQVTVSS	low polyreactivity
QVQLVESGGGLVQAGGSLRLSCAASGRIFEWNAMGWYRQAPGKERELVAAISWSGGSTYYADSVKGRFTISRDNAKNTVYLQMNSLKPEDTAVYYCAALTYRWSARDYWGQGTQVTVSS	high polyreactivity
QVQLVESGGGLVQAGGSLRLSCAASGRIFFANTMGWYRQATGKERELVAAISLSSGSRYYADSVKGRFTISRDNAKNTVYLQMNSLKPEDTAVYYCAARGYSHVASRLYYYWGQGTQVTVSS	high polyreactivity
QVQLVESGGGLVQAGGSLRLSCAASGRIFFAYAMGWYRQAQGKEREFVAAISDNDGSTYYADSVKGRFTISRDNAKNTVYLQMNSLKPEDTAVYYCNADLGYVYDYCGQGTQVTVSS	low polyreactivity
QVQLVESGGGLVQAGGSLRLSCAASGRIFFDYAMGWYRQAPGKERELVADISYNGGSTNYADSVKGRFTISRDNAKNTVYLQMNSLKPEDTAVYYCNRAFVPVYDLDYYWGQGTQVTVSS	low polyreactivity
QVQLVESGGGLVQAGGSLRLSCAASGRIFFDYAMGWYRQAPGKERELVAVITSSGSSTYYADSVKGRFTISRDNAKNTVYLQMNSLKPEDTAVYYCNAARLYSGLWYGYDYWGQGTQVTVSS	high polyreactivity
QVQLVESGGGLVQAGGSLRLSCAASGRIFFGYAMGWYRLAPGKERELVAAISYGGGRTYYADSVKGRFTISRDNAKNTVSLQMNSLKPEDTAVDYCNKRVTGGSWSPGHYRYNYWGQGSQVTVSS	high polyreactivity
QVQLVESGGGLVQAGGSLRLSCAASGRIFFGYAMGWYRQAPGKERELVASISRGGSTNYADSVKGRFTISRDNAKNTVYLQMNSLKPEDTAVYYCAASRYLQRYGMYYWGQGTQVTVSS	high polyreactivity
QVQLVESGGGLVQAGGSLRLSCAASGRIFFGYAMGWYRQAPGKERELVATITSGGSTYYADSVKGRFTISRDNAKNTVYLQMNSLKPEDTAVYYCASQLHWVFTSGWAYRGSYDYWGQGTQVTVSS	low polyreactivity
QVQLVESGGGLVQAGGSLRLSCAASGRIFFLYAMGWYRQAPGKERELVASITRRGGSTYYADSVKGRFTISRDNAKNTVYLQMNSLKPEDTAVYYCAAELYRSNVYHYDYWGQGTQVTVSS	high polyreactivity
QVQLVESGGGLVQAGGSLRLSCAASGRIFFPYDMGWYRQAPGKERELVAAITNSGGRTYYADSVKGRFTISRDNAKNTVYLQMNSLKPEDTAVYYCAARYGSGGDYWGQGTQVTVSS	low polyreactivity
QVQLVESGGGLVQAGGSLRLSCAASGRIFFRYAMGWSRQAPGKEREFVATITWSGGRTHYADSVKGRFTISRDNAKNTVYLQMNSLKPEDTAVYYCAASYHRYAFDYWGQGTQVTGSS	high polyreactivity
QVQLVESGGGLVQAGGSLRLSCAASGRIFFTNAMGWYRQAPGKERELVAAISKSGARTYYADSVKGRFTISRDNAKNTVYLQMNSLKPEDTAVYYCAADVSVSGYGYWGQGTQVTVSS	high polyreactivity
